For the data set, the target named is T1, SSB (single-strand binding protein) (Sulfolobus solfataricus, UniProt Q97W73 1-148).
T1 sequence: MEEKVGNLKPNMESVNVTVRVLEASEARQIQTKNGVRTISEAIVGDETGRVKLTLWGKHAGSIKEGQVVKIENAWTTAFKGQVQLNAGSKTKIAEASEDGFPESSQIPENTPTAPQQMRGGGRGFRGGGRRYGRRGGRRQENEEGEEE
Briefly: EMSA.

B1: RGA oligonucleotide (dsDNA)
DNA 1: GGCTGTCGACGAAGATAGAGGACTTAATCGATATC
DNA 2: GGGATATCGATTAAGTCCTCTATCTTCGTCGACAG
On to B1, for which the binding result is on record as “binds”.

Source of the values: article PMC548347.
